From patent US20100255578A1
Like-named read-outs stand apart in the source and are kept apart here.

Assays:
H296-H271 [1] = experiment: ELISA; H296-H271 coated at 5 ug/mL; HRP-labeled FNH3-8, ABTS; blank subtracted
[2] = target: H-296, a polypeptide comprising a heparin binding domain and a CS-1 domain of fibronectin (Homo sapiens (Human)) (UniProt P02751); experiment: ELISA; H-296 coated at 25 ug/mL in 0.2 M phosphate buffer pH 7.4; HRP-labeled FNH3-8, ABTS
[3] = target: H-296, a polypeptide comprising a heparin binding domain and a CS-1 domain of fibronectin (Homo sapiens (Human)) (UniProt P02751); experiment: ELISA; H-296 coated at 50 ug/mL in 0.2 M acetate buffer pH 5.6; HRP-labeled FNH3-8, ABTS
H296-H296-H296-HT [4] = experiment: ELISA; H296-H296-H296-HT coated at 5 ug/mL; HRP-labeled FNH3-8, ABTS; blank subtracted
H296-H296-H296-HT, sequence (chain, as listed by the source limits assumed): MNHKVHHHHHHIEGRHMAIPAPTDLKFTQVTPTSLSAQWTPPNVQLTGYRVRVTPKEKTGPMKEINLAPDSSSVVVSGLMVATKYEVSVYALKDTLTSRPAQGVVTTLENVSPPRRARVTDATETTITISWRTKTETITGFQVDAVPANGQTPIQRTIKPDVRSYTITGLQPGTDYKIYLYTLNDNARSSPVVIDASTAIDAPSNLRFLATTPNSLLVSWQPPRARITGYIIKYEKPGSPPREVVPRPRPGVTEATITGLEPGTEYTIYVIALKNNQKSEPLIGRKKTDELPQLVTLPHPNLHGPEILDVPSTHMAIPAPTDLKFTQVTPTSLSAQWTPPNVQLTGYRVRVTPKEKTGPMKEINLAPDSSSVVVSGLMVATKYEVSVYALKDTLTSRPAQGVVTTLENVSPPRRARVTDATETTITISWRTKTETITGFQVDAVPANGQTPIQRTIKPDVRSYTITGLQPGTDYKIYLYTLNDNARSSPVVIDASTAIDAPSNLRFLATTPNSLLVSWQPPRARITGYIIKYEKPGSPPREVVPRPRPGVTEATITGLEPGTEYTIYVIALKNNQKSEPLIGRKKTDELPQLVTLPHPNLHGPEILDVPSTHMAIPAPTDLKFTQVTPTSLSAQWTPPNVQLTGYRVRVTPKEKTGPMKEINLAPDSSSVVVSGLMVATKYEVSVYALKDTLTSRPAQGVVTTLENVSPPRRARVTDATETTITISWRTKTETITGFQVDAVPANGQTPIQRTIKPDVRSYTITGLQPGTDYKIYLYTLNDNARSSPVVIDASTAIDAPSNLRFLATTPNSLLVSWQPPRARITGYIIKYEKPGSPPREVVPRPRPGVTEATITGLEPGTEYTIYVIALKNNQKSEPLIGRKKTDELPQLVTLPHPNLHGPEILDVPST

[5] = target: H296-H296 (modified fibronectin fragment in which two H-296's are connected); experiment: ELISA as in Example 34; H296-H296 coated at 12.5 ug/mL in PBS; HRP-labeled FNH3-8
[6] = target: H-296, a polypeptide comprising a heparin binding domain and a CS-1 domain of fibronectin (Homo sapiens (Human)) (UniProt P02751); experiment: ELISA; H-296 coated at 50 ug/mL in 0.2 M phosphate buffer pH 6.2; HRP-labeled FNH3-8, ABTS
[7] = target: H-296, a polypeptide comprising a heparin binding domain and a CS-1 domain of fibronectin (Homo sapiens (Human)) (UniProt P02751); experiment: ELISA; H-296 coated at 50 ug/mL in 0.2 M acetate buffer pH 4.4; HRP-labeled FNH3-8, ABTS
H271-H296 [8] = experiment: ELISA; H271-H296 coated at 14 ug/mL; HRP-labeled FNH3-8, ABTS; blank subtracted
H271-H296, sequence (chain, as listed by the source limits assumed): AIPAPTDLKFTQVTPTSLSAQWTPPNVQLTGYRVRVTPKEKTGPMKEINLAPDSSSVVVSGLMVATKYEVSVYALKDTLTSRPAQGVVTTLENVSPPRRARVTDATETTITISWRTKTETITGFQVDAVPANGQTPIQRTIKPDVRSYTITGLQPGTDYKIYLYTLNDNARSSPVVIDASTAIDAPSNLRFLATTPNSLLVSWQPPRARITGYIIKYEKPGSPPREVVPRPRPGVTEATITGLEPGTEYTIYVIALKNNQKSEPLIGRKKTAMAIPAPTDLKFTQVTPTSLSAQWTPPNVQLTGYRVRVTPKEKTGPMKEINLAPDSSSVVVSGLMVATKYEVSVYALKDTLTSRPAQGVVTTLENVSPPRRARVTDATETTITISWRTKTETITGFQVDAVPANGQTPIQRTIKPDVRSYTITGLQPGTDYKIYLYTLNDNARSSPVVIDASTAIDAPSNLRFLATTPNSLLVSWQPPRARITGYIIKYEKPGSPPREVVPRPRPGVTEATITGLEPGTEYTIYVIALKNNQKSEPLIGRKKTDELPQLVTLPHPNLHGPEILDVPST

H296-H296-HT [9] = experiment: ELISA; H296-H296-HT coated at 25 ug/mL; HRP-labeled FNH3-8, ABTS; blank subtracted
H296-H296-HT, sequence (chain, as listed by the source limits assumed): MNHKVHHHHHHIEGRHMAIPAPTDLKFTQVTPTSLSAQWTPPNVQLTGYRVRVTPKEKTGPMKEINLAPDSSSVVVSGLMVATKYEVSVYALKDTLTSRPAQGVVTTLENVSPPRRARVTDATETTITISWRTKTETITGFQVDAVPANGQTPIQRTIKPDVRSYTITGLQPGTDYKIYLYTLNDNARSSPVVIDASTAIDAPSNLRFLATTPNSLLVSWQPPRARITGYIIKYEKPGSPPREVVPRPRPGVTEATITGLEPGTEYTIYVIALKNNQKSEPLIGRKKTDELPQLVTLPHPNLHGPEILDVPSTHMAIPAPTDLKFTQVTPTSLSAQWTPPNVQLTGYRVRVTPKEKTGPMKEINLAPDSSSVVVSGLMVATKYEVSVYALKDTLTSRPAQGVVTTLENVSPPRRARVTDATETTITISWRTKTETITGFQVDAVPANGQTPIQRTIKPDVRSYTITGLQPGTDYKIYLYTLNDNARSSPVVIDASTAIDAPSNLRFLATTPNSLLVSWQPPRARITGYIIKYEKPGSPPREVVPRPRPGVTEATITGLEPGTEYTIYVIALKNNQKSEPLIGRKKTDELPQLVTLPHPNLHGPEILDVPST

H296-H296-HT [10] = experiment: ELISA; H296-H296-HT coated at 2 ug/mL; HRP-labeled FNH3-8, ABTS; blank subtracted
H296-H296-H296-HT [11] = experiment: ELISA; H296-H296-H296-HT coated at 2 ug/mL; HRP-labeled FNH3-8, ABTS; blank subtracted
H296-H296-HT [12] = experiment: ELISA; H296-H296-HT coated at 10 ug/mL; HRP-labeled FNH3-8, ABTS; blank subtracted
H296-H271 [13] = experiment: ELISA; H296-H271 coated at 11 ug/mL; HRP-labeled FNH3-8, ABTS; blank subtracted
[14] = target: CH-296, a polypeptide comprising a cell binding domain, a heparin binding domain and a CS-1 domain of fibronectin (Homo sapiens (Human)) (UniProt P02751); experiment: ELISA; CH-296 coated at 25 ug/mL; HRP-labeled FNH3-8, ABTS; blank subtracted
H296-H296-H296-HT [15] = experiment: ELISA; H296-H296-H296-HT coated at 1 ug/mL; HRP-labeled FNH3-8, ABTS; blank subtracted
[16] = target: H-296, a polypeptide comprising a heparin binding domain and a CS-1 domain of fibronectin (Homo sapiens (Human)) (UniProt P02751); experiment: ELISA as in Example 34; H-296 coated at 25 ug/mL in pH 5.6 acetate buffer; HRP-labeled FNH3-8
H296-H296-H296-HT [17] = experiment: ELISA; H296-H296-H296-HT coated at 10 ug/mL; HRP-labeled FNH3-8, ABTS; blank subtracted
[18] = target: H296-H296 (modified fibronectin fragment in which two H-296's are connected); experiment: ELISA as in Example 34; H296-H296 coated at 3.125 ug/mL in PBS; HRP-labeled FNH3-8
H271-H296 [19] = experiment: ELISA; H271-H296 coated at 12 ug/mL; HRP-labeled FNH3-8, ABTS; blank subtracted
[20] = target: CH-296, a polypeptide comprising a cell binding domain, a heparin binding domain and a CS-1 domain of fibronectin (Homo sapiens (Human)) (UniProt P02751); experiment: ELISA; CH-296 coated at 25 ug/mL; HRP-labeled FNH3-8, ABTS; blank subtracted; remark: listed apart in the source
H296-H296-H296-HT [21] = experiment: ELISA; H296-H296-H296-HT coated at 4 ug/mL; HRP-labeled FNH3-8, ABTS; blank subtracted
[22] = target: H-296, a polypeptide comprising a heparin binding domain and a CS-1 domain of fibronectin (Homo sapiens (Human)) (UniProt P02751); experiment: ELISA; H-296 coated at 50 ug/mL in 0.2 M phosphate buffer pH 7.4; HRP-labeled FNH3-8, ABTS
H296-H296-HT [23] = experiment: ELISA; H296-H296-HT coated at 0.5 ug/mL; HRP-labeled FNH3-8, ABTS; blank subtracted
[24] = target: H-296, a polypeptide comprising a heparin binding domain and a CS-1 domain of fibronectin (Homo sapiens (Human)) (UniProt P02751); experiment: ELISA; H-296 coated at 25 ug/mL in 0.2 M acetate buffer pH 5.0; HRP-labeled FNH3-8, ABTS
[25] = target: H-296, a polypeptide comprising a heparin binding domain and a CS-1 domain of fibronectin (Homo sapiens (Human)) (UniProt P02751); experiment: ELISA; H-296 coated at 50 ug/mL in 0.2 M phosphate buffer pH 8.0; HRP-labeled FNH3-8, ABTS
[26] = target: H-296, a polypeptide comprising a heparin binding domain and a CS-1 domain of fibronectin (Homo sapiens (Human)) (UniProt P02751); experiment: ELISA; H-296 coated at 50 ug/mL in 0.2 M acetate buffer pH 3.8; HRP-labeled FNH3-8, ABTS
[27] = target: H-296, a polypeptide comprising a heparin binding domain and a CS-1 domain of fibronectin (Homo sapiens (Human)) (UniProt P02751); experiment: ELISA; H-296 coated at 25 ug/mL in 0.2 M acetate buffer pH 4.4; HRP-labeled FNH3-8, ABTS

H296-H271, sequence (chain, as listed by the source limits assumed): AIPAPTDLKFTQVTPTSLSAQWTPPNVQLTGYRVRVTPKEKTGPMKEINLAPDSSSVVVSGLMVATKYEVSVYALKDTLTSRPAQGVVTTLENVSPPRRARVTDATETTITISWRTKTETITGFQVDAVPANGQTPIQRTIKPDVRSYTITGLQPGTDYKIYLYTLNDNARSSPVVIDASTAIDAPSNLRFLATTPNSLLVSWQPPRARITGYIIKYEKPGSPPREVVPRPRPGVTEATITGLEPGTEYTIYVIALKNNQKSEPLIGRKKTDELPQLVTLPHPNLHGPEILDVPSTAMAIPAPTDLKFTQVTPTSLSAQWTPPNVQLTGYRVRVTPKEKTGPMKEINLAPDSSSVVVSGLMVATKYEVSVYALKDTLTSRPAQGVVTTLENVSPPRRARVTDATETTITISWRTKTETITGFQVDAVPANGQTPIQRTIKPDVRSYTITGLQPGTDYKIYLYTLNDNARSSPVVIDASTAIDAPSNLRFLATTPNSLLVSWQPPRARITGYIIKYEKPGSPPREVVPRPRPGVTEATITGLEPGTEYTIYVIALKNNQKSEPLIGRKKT

FNH3-8 antibody (manufactured by TAKARA BIO INC.) labeled with HRP
405 nm (Found Value - Blank) (H296-H271 [1]): 0.448
absorbance at 405 nm [2]: 0.08
absorbance at 405 nm [3]: 0.567
405 nm (Found Value - Blank) (H296-H296-H296-HT [4]): 0.87
absorbance at 405 nm [5]: 1.73
absorbance at 405 nm [6]: 0.244
absorbance at 405 nm [7]: 0.379
405 nm (Found Value - Blank) (H271-H296 [8]): 0.605
405 nm (Found Value - Blank) (H296-H296-HT [9]): 0.965
405 nm (Found Value - Blank) (H296-H296-HT [10]): 0.54
405 nm (Found Value - Blank) (H296-H296-H296-HT [11]): 0.545
405 nm (Found Value - Blank) (H296-H296-HT [12]): 0.976
405 nm (Found Value - Blank) (H296-H271 [13]): 0.561
405 nm (Found Value - Blank) [14]: 0.859
405 nm (Found Value - Blank) (H296-H296-H296-HT [15]): 0.261
absorbance at 405 nm [16]: 0.224
405 nm (Found Value - Blank) (H296-H296-H296-HT [17]): 0.924
absorbance at 405 nm [18]: 1.01
405 nm (Found Value - Blank) (H271-H296 [19]): 0.639
405 nm (Found Value - Blank) [20]: 0.564
405 nm (Found Value - Blank) (H296-H296-H296-HT [21]): 0.81
absorbance at 405 nm [22]: 0.169
405 nm (Found Value - Blank) (H296-H296-HT [23]): 0.033
absorbance at 405 nm [24]: 0.392
absorbance at 405 nm [25]: 0.174
absorbance at 405 nm [26]: 0.213
absorbance at 405 nm [27]: 0.428
